{"source": "patent US20250205169A1", "about": "(TIDAL THERAPEUTICS, published 2025)", "binders": {"B1": {"name": "anti-CD206 VHH targeting moiety (aCD206 VHH), as DSPE-PEG2k-anti-CD206 VHH conjugate inserted into LNPs (VHH)", "VHH": "QVQLQESGGGLVQAGGSLRLSCAASGFTDDDYDIGWFRQAPGKEREGVSCISSSDGSTYYADSVKGRFTISSDNAKNTVYLQMNSLKPEDTAVYYCAADFFRWDSGSYYVRGCRHATYDYWGQGTQVTVSS", "modifications": "DSPE-PEG(2k)-maleimide covalently coupled to the thiol of a C-terminal cysteine residue"}}, "target": "T1, CD206 on M2 macrophages derived from primary human PBMC (human (macrophages derived from primary …, UniProt P22897 19-1456))", "T1 sequence (looked up)": "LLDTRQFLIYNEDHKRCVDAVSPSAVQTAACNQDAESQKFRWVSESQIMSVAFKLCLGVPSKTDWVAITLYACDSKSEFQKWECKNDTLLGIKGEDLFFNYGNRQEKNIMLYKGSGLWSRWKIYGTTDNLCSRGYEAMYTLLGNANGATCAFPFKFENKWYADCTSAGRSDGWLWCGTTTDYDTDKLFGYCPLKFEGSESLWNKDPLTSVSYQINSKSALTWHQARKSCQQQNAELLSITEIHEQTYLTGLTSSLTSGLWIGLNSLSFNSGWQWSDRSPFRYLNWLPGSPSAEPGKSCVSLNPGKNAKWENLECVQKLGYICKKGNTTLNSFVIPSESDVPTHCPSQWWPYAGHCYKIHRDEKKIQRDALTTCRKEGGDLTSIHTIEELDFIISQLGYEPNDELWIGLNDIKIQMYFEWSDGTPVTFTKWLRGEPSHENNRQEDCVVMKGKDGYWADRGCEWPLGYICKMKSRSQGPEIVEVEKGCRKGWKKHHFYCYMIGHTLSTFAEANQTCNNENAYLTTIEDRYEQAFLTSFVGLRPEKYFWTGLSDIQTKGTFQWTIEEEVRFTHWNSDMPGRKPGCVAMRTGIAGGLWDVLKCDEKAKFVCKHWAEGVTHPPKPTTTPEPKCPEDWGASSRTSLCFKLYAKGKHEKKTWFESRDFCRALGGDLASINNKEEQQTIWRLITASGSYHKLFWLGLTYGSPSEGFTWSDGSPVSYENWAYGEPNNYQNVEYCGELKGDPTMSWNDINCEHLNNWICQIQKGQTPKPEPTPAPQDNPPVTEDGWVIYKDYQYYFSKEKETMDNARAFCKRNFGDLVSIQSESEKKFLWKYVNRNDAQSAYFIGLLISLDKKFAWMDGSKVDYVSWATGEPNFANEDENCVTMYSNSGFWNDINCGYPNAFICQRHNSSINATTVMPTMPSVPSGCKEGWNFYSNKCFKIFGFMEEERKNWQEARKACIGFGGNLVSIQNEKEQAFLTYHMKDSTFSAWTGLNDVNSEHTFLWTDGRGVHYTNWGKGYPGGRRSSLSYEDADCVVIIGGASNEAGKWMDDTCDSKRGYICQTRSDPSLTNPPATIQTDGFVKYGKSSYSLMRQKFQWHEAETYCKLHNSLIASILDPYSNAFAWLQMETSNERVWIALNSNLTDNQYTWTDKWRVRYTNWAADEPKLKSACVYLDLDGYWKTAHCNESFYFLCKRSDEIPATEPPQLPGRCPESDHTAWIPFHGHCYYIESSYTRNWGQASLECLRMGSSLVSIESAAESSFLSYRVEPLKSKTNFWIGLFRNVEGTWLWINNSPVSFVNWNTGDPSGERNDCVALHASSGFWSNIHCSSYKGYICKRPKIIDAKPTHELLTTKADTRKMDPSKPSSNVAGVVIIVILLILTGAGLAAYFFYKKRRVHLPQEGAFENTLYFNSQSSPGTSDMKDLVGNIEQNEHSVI", "test": "cell-based or functional assay"}
{"binder": "B1", "values": [{"measurement": "GFP protein expression (MFI of transfected macrophages), fold difference between non-targeted and aCD206 targeted LNPs; Lipid 19A", "result": 11, "unit": "fold"}, {"measurement": "GFP protein expression (MFI of transfected macrophages), fold difference between non-targeted and aCD206 targeted LNPs; Lipids 15 and 46", "result": 2, "unit": "fold"}]}
